Among the data in patent US20200247901A1 are decrease in mesothelin shedding from RH29 cells (ELISA of shed mesothelin, OD value) values, retold here.

The target in the test is mesothelin on RH29 mesothelioma cells (V and M variant ratio 50:50) (human) (UniProt Q13421). Description: cell-based or functional assay.
Sequence of mesothelin on RH29 mesothelioma cells (V and M variant ratio 50:50) (human) (Q13421 other isoform, or with tags, fused parts or gaps mutant limits assumed): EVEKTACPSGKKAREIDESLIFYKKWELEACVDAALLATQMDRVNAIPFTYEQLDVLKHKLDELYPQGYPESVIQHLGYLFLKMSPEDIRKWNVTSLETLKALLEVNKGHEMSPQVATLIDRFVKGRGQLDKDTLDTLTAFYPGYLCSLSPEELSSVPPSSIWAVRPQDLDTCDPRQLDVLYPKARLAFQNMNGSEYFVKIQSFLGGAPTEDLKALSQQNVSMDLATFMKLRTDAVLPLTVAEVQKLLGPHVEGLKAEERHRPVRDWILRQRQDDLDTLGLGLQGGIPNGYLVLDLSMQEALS

B1: 15B6 anti-mesothelin antibody (IgG2b) (antibody, V domains shown)
VH: EVQLQQSGPVLVKPGASVKISCKASGYSFTGYYMHWVRQSLVKRLEWIGRINPYTGVPSYKHNFKDKASLTVDKSSSTAYMELHSLTSEDSAVYYCARELGGYWGQGTTLTVSS
VL: QAVVTQESALTTSPGETVTLTCRSSTGAVTTGNYPNWVQEKPDHLFTGLIAGTNNRAPGVPARFSGSLIGDKAALTITGAQTEDEAIYFCALWFSSHWVFGGGTKLTVL
On to B1, for which the decrease in mesothelin shedding from RH29 cells (ELISA of shed mesothelin, OD value) came to 50%.
